Starred links: 1 amine or outer side, 2 acyl side, 3 side chain; linkers in the order of their positions; H or OH if unused. Positions of bridges follow the written chain, without caps; N, C: chain ends. Non-standard residues stand in square brackets, D forms with d. Primed or numbered codes have the meaning given here. No end group written: not given here. *: point of attachment. MePEG4c″ = K(MePEG4c) = (S)-20-amino-14-oxo-2,5,8,11-tetraoxa-15-azahenicosane-21-oic acid (Lys side chain acylated with methoxy-PEG4 acid), COCCOCCOCCOCCC(=O)*; E(PEG8Me) = (S)-30-amino-27-oxo-2,5,8,11,14,17,20,23-octaoxa-26-azahentriacontane-31-oic acid, COCCOCCOCCOCCOCCOCCOCCOCCNC(=O)CC[C@H](N[*:1])C(=O)[*:2]; Phe(4-OMe)(3) = (S)-2-amino-3-(4-methoxyphenyl)propanoic acid (source code F4OMe), COc1ccc(C[C@H](N[*:1])C(=O)[*:2])cc1; F4aao = (S)-2-amino-3-(4-(carboxymethoxy)phenyl)propanoic acid, O=C([C@H](Cc1ccc(OCC(=O)[*:3])cc1)N[*:1])[*:2]; Phe(4-OMe)″ = (S)-2-amino-3-(4-methoxyphenyl)propanoic acid (F4OMe), COc1ccc(C[C@H](N[*:1])C(=O)[*:2])cc1; Phe(4-OMe) = F4OMe = (S)-2-amino-3-(4-methoxyphenyl)propanoic acid, COc1ccc(C[C@H](N[*:1])C(=O)[*:2])cc1; Trp(1-CH2CO) = O=C([C@H](Cc1cn(CC(=O)[*:3])c2ccccc12)N[*:1])[*:2]; Phe(3-COOH) = N[C@@H](Cc1cccc(C(=O)O)c1)C(=O)O; NMePhe(3-Cl) = CN[C@@H](Cc1cccc(Cl)c1)C(=O)O; NMePhe(4-F) = CN[C@@H](Cc1ccc(F)cc1)C(=O)O; 3Pal(6-NH2) = Nc1ccc(C[C@H](N)C(=O)O)cn1; NMeW = CN[C@@H](Cc1c[nH]c2ccccc12)C(=O)O; NMe3Pal = CN[C@@H](Cc1cccnc1)C(=O)O; NMe4Pal = CN[C@@H](Cc1ccncc1)C(=O)O; NMeY = CN[C@@H](Cc1ccc(O)cc1)C(=O)O; NMeR = CN[C@@H](CCCNC(=N)N)C(=O)O; NMeF = CN[C@@H](Cc1ccccc1)C(=O)O; 3Pal = N[C@@H](Cc1cccnc1)C(=O)O; 4Pal = N[C@@H](Cc1ccncc1)C(=O)O; NMeA = CN[C@@H](C)C(=O)O
Biological target: T1, human transferrin receptor (hTfR) (human, UniProt P02786 89-760)
T1 construct: used as 0.5 uM hTfR dimer solution, immobilised on an NTA sensor chip (Ni capture plus EDC/NHS coupling); also called human TfR; TfR1
T1 sequence (P02786 89-760 limits assumed): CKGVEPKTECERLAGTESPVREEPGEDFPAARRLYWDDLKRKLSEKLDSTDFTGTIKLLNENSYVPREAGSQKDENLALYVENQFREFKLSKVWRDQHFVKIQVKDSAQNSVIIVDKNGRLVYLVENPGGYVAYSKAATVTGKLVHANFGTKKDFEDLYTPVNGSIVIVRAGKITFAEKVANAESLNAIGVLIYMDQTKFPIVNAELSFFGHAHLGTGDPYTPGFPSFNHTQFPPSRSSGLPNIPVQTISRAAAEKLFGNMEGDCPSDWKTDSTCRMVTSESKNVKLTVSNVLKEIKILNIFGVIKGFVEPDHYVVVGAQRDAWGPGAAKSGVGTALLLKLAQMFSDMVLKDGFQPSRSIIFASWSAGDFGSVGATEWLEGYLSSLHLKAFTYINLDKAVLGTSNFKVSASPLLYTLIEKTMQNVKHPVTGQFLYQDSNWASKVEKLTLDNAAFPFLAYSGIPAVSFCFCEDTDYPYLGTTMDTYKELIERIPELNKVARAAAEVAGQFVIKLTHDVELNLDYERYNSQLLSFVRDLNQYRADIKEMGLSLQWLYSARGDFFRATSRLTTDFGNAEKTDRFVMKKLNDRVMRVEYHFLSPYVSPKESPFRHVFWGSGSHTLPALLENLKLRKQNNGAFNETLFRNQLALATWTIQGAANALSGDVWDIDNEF
Test: SPR; B = KD 1-100 nM
Experimental: NTA sensor chip (Global Life Sciences Technologies Japan K.K.) was inserted into BiacoreT200 (Global Life Sciences Technologies Japan K.K.), then the priming operation was performed three times by using running buffer containing: 10 mM HEPES pH 8.0 (Nacalai Tesque, Inc.), 150 mM NaCl (Nacalai Tesque, Inc.), 0.05% Tween 20 (Nacalai Tesque, Inc.), 0.1% BSA (SIGMA-ALDRICH) and 1.0% DMSO (FUJIFILM Wako Pure Chemical Corporation), and equilibrated at a flow rate of 30 μL/min. 350 mM EDTA solution was reacted at a flow rate of 10 μL/min for 60 seconds, 0.5 mM […] solution (Kishida Chemical Co., Ltd.) was reacted at a flow rate of 10 μL/min for 60 seconds, and then the NTA sensor chip was washed with 3 mM EDTA solution (Nacalai Tesque, Inc.) at a flow rate of 10 μL/min for 60 seconds. After mixing 50 μL each of 60 mM EDC solution (Global Life Science Technologies Japan K.K.) and 650 mM NHS solution (Global Life Science Technologies Japan K.K.), the reaction was carried out at a flow rate of 10 μL/min for 420 seconds. 150 μL of 0.5 μM hTfR dimer solution was prepared by dilution with running buffer and reacted at a flow rate of 10 μL/min for 300 seconds to immobilize hTfR on the NTA sensor chip. For the human transferrin receptor (hTfR), recombinant hTfR described in Example 2 of WO2018/124121 was used. After immobilization, capping was performed by reacting with 1.0 M ethanolamine solution (Global Life Sciences Technologies Japan K.K.) at a flow rate of 10 μL/min for 420 seconds. Peptide lysate prepared in DMSO solution to 10 mM was diluted with running buffer to be a final concentration of 10 μM peptide lysate, then peptide solutions of 100 nM, 50 nM, 25 nM, 10 nM, and 5 nM were prepared. Using the above samples, the kinetics of the peptide against hTfR was obtained by SPR measurement.
The kinetic evaluation model was single-cycle kinetics, and curve fitting was performed using Biacore T200 Evaluation Software Version 3.0 (Global Life Science Technologies Japan K.K.). The binding of the peptide to hTfR was evaluated by performing curve fitting on the obtained sensorgram by least squares method and obtaining the KD value.

| Binder | KD [µM] |
| --- | --- |
| {CH2CO}-AV[NMePhe(4-F)]V[NMeW]NYYIIK(MePEG4c″)[dR]FYC-NH2 (thioether N-15; not fully specified (residue 14)) [894_0269] | 0.001 to 0.1 |
| {CH2CO}-AV[NMePhe(4-F)]V[NMeW]NY[Phe(4-OMe)]IIK(MePEG4c″)[dR]FYC-NH2 (thioether N-15; not fully specified (residue 14)) [894_0270] | 0.001 to 0.1 |
| {CH2CO}-AV[NMePhe(4-F)]V[NMeW]NYYII[NMeR]K(MePEG4c″)FYC-NH2 (thioether N-15; not fully specified (residue 14)) [894_0271] | 0.001 to 0.1 |
| {CH2CO}-AV[NMePhe(4-F)]V[NMeW]NY[Phe(4-OMe)]II[NMeR]K(MePEG4c″)FYC-NH2 (thioether N-15; not fully specified (residue 14)) [894_0272] | 0.001 to 0.1 |
| {CH2CO}-AV[NMeF]VWNYYIIR[dR]FYC-NH2 (thioether N-15; not fully specified (residue 14); also: linker PEG4c) [894_0282, listing 1 of 2 here] | 0.001 to 0.1 |
| {CH2CO}-AV[NMeF]VWNYYIIR[dR]FYC-NH2 (thioether N-15; not fully specified (residue 14); also: linker PEG4c) [894_0282, listing 2 of 2 here] | 0.001 to 0.1 |
| {CH2CO}-AV[NMeF]VWNYYII[NMeR]RFYC-NH2 (thioether N-15; not fully specified (residue 14); also: linker PEG4c) [894_0284, listing 1 of 2 here] | 0.001 to 0.1 |
| {CH2CO}-AV[NMeF]VWNYYII[NMeR]RFYC-NH2 (thioether N-15; not fully specified (residue 14); also: linker PEG4c) [894_0284, listing 2 of 2 here] | 0.001 to 0.1 |
| {CH2CO}-[NMeA]V[NMePhe(3-Cl)]V[NMeW]NY[Phe(4-OMe)]IIR[dA]FYC-NH2 (thioether N-15; not fully specified (residue 14); also: linker PEG4c) [894_0287] | 0.001 to 0.1 |
| {CH2CO}-AV[NMeF]VWNY[F4aao]IIRRYYC-NH2 (thioether N-15; not fully specified (residue 14); also: linker PEG4c) [894_0296] | 0.001 to 0.1 |
| {CH2CO}-AV[NMeF]V[Trp(1-CH2CO)]NY[F4aao]IIRRYYC-NH2 (thioether N-15; not fully specified (residue 14); also: linker PEG4c) [894_0297] | 0.001 to 0.1 |
| {CH2CO}-AV[NMePhe(3-Cl)]V[Trp(1-CH2CO)]NY[F4aao]II[E(PEG8Me)]RF[NMeY]C (thioether N-15; not fully specified (C-terminus)) [894_0298] | 0.001 to 0.1 |
| {CH2CO}-AV[NMePhe(3-Cl)]V[Trp(1-CH2CO)]NY[F4aao]IIR[E(PEG8Me)]F[NMeY]C (thioether N-15; not fully specified (C-terminus)) [894_0299] | 0.001 to 0.1 |
| {CH2CO}-AV[NMePhe(3-Cl)]V[Trp(1-CH2CO)]NY[F4aao]II[E(PEG8Me)]R[Phe(3-COOH)][NMeY]C (thioether N-15; not fully specified (C-terminus)) [894_0301] | 0.001 to 0.1 |
| {CH2CO}-AV[NMePhe(3-Cl)]V[Trp(1-CH2CO)]NY[F4aao]IIQRF[NMeY]C (thioether N-15; not fully specified (C-terminus)) [894_0302] | 0.001 to 0.1 |
| {CH2CO}-AV[NMePhe(3-Cl)]V[Trp(1-CH2CO)]NY[F4aao]IIRQF[NMeY]C (thioether N-15; not fully specified (C-terminus)) [894_0303] | 0.001 to 0.1 |

| Binder | KD [µM] |
| --- | --- |
| {CH2CO}-AV[NMePhe(3-Cl)]V[Trp(1-CH2CO)]NY[3Pal]IIRR[4Pal][NMeY]C (thioether N-15; not fully specified (C-terminus)) [894_0306] | 0.001 to 0.1 |
| {CH2CO}-AV[NMePhe(3-Cl)]V[Trp(1-CH2CO)]N[3Pal(6-NH2)][3Pal]IIRR[4Pal][NMeY]C (thioether N-15; not fully specified (C-terminus)) [894_0307] | 0.001 to 0.1 |
| {CH2CO}-AV[NMePhe(3-Cl)]V[Trp(1-CH2CO)]N[3Pal(6-NH2)][Phe(4-OMe)″]IIRR[4Pal][NMeY]C (thioether N-15; not fully specified (C-terminus)) [894_0308] | 0.001 to 0.1 |
| {CH2CO}-AV[NMePhe(3-Cl)]VWNY[3Pal]IIRR[4Pal][NMeY]C (thioether N-15; not fully specified (C-terminus)) [894_0309] | 0.001 to 0.1 |
| {CH2CO}-AV[NMePhe(3-Cl)]VWN[3Pal(6-NH2)][3Pal]IIRR[4Pal][NMeY]C-NH2 (thioether N-15; also: linker PEG4c) [894_0310] | 0.001 to 0.1 |
| {CH2CO}-AV[NMePhe(3-Cl)]VWN[3Pal(6-NH2)][Phe(4-OMe)″]IIRR[4Pal][NMeY]C-NH2 (thioether N-15; also: linker PEG4c) [894_0311] | 0.001 to 0.1 |
| {CH2CO}-AV[NMePhe(3-Cl)]VWNY[4Pal]IIRR[4Pal][NMeY]C-NH2 (thioether N-15; also: linker PEG4c) [894_0312] | 0.001 to 0.1 |
| {CH2CO}-AV[NMe3Pal]VWNY[Phe(4-OMe)″]IIRRF[NMeY]C-NH2 (thioether N-15; also: linker PEG4c) [894_0313] | 0.001 to 0.1 |
| {CH2CO}-AV[NMe4Pal]VWNY[Phe(4-OMe)″]IIRRF[NMeY]C-NH2 (thioether N-15; also: linker PEG4c) [894_0314] | 0.001 to 0.1 |
| {CH2CO}-AV[NMePhe(3-Cl)]VWN[3Pal(6-NH2)][Phe(4-OMe)″]IIRRF[NMeY]C-NH2 (thioether N-15; also: linker PEG4c) [894_0315] | 0.001 to 0.1 |
| {CH2CO}-AV[NMe3Pal]VWNY[Phe(4-OMe)″]IIRR[4Pal][NMeY]C-NH2 (thioether N-15; also: linker PEG4c) [894_0316] | 0.001 to 0.1 |
| {CH2CO}-AV[NMePhe(3-Cl)]VWNY[3Pal]IIRRF[NMeY]C (thioether N-15; not fully specified (C-terminus)) [894_0318] | 0.001 to 0.1 |
| {CH2CO}-AV[NMePhe(3-Cl)]VWNY[4Pal]IIRRF[NMeY]C-NH2 (thioether N-15; also: linker PEG4c) [894_0319] | 0.001 to 0.1 |
| {CH2CO}-AV[NMePhe(3-Cl)]VWN[3Pal(6-NH2)][4Pal]IIRR[4Pal][NMeY]C-NH2 (thioether N-15; also: linker PEG4c) [894_0320] | 0.001 to 0.1 |
| Ac-AV[NMe3Pal]VWN[3Pal(6-NH2)][Phe(4-OMe)(3)]IIRRF[NMeY]C (thioether (positions not given here); not fully specified (C-terminus, bridges)) [894_0322] | 0.001 to 0.1 |
